Values quoted from earlier work, collected in paper doi:10.1101/2023.01.13.523947.
pKd: −log10 of the molar value.

System: 35I9 anti-DNA mAb (Mus musculus (NZWxNZB F1))

Substance	pKd
dsDNA (cited Kd)	7.05
ssDNA (cited Kd)	6.15
